The source of these data is article PMC3129650 (Journal of immunology (Baltimore, Md. : 1950), 2011).

The test concerns the target T1, Native purified human beta2-glycoprotein I (β2GPI) (human, UniProt P02749 20-345).
T1 sequence (looked up): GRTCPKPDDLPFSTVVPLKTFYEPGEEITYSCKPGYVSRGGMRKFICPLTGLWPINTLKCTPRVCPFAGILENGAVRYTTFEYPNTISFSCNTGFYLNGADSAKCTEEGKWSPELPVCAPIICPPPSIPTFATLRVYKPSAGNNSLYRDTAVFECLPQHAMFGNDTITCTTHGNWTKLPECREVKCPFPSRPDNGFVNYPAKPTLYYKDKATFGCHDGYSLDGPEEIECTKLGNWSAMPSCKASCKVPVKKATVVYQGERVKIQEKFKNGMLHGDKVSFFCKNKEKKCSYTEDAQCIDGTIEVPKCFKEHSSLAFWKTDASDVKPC
As to the kind of experiment: ELISA. (In general: An ELISA detects its analyte on a solid surface through an enzyme-linked reagent.)

B1: MBP-Ro60 aa 82–244 (domain or fragment)
chain: not shown
modifications: biotin (Sulfo-NHS-Biotin)
Regarding B1, the binding result was “binds”.
